Experimental data as given in article PMC3089955.

Columns and labels:
[1] = target: DENV-2 NS1 N130Q with carboxy-terminal hexa-histidine tag (Dengue virus serotype 2 (DENV-2), strain 16681); assay: non-reducing SDS-PAGE with Western blot
[2] = target: T1, DENV-2 NS1 wild type without hexa-histidine tag (Dengue virus serotype 2 (DENV-2), strain 16681), P29990; assay: SEC; conditions: remark: other sources report otherwise
T1 chain: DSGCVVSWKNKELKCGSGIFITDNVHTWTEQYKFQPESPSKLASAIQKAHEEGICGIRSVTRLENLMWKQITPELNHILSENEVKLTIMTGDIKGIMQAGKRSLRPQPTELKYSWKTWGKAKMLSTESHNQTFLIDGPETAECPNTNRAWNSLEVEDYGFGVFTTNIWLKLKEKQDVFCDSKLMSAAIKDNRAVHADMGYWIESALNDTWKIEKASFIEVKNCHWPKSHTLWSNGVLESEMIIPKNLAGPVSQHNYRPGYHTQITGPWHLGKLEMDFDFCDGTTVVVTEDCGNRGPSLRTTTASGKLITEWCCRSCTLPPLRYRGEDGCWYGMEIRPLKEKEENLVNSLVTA

Row | Molecule | stoichiometry N [1] | stoichiometry N [2]
1 | DENV-2 NS1 N130Q with carboxy-terminal hexa-histidine tag (natural protein) | 2 | 
2 | DENV-2 NS1 wild type without hexa-histidine tag, P29990 776-1127 (natural protein) DSGCVVSWKNKELKCGSGIFITDNVHTWTEQYKFQPESPSKLASAIQKAHEEGICGIRSVTRLENLMWKQITPELNHILSENEVKLTIMTGDIKGIMQAGKRSLRPQPTELKYSWKTWGKAKMLSTESHNQTFLIDGPETAECPNTNRAWNSLEVEDYGFGVFTTNIWLKLKEKQDVFCDSKLMSAAIKDNRAVHADMGYWIESALNDTWKIEKASFIEVKNCHWPKSHTLWSNGVLESEMIIPKNLAGPVSQHNYRPGYHTQITGPWHLGKLEMDFDFCDGTTVVVTEDCGNRGPSLRTTTASGKLITEWCCRSCTLPPLRYRGEDGCWYGMEIRPLKEKEENLVNSLVTA |  | 6
